Earlier results as cited in article PMC8557391.

Molecular target: Keap1 (Homo sapiens) (UniProt Q14145)
Assay: FP

Sequence of UniProt Q14145 (Q14145 whole entry): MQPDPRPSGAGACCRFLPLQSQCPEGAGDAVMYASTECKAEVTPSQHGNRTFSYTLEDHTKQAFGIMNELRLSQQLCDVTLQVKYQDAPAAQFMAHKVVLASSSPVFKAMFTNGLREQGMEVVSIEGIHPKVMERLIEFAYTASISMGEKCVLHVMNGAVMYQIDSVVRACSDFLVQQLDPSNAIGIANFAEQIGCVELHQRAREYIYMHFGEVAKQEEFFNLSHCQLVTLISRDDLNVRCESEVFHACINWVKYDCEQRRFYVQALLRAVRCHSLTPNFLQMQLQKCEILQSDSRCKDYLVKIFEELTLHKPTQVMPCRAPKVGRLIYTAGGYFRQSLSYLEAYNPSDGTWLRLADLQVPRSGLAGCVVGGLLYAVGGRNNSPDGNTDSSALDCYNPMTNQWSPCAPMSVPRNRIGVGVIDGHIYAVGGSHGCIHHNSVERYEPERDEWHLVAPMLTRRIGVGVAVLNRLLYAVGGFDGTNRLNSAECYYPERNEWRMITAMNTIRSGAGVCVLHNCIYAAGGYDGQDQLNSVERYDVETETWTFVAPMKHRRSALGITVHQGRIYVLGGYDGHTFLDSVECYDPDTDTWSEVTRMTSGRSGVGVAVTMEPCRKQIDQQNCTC

Row | Kd [µM] | Substance
1 | 0.054 | Nrf2 9mer peptide (from UniProt Q16236)
2 | 0.051 | Nrf2 10mer peptide (from UniProt Q16236)
